Where two headings read alike, the source gives them in different places.
Assays:
[1] = target: HLA-A*0301 (Human); test: competition with 125I-labelled probe peptide for purified HLA, gel filtration; relative to standard peptide; conditions: remark: other sources report otherwise
[2] = target: T1, HLA-DRB1*0101 (human)
T1 chain 1: not shown
T1 chain 2: not shown

[3] = target: T2, HLA-DRB1*0401 (human)
T2 chain 1: not shown
T2 chain 2: not shown

[4] = target: T3, HLA-DRB1*0701 (human)
T3 chain 1: not shown
T3 chain 2: not shown

[5] = target: HLA-A*0101 (Human); test: competition with 125I-labelled probe peptide for purified HLA-A*0101, gel filtration
[6] = target: HLA-B*0702 (human); test: competition with 125I-labelled probe peptide for purified HLA, gel filtration
[7] = target: HLA-B*3501 (human); test: as above
[8] = target: HLA-B*5301 (human); test: as above
[9] = target: HLA-B*5401 (human); test: as above
[10] = target: HLA-A*3301 (human); conditions: remark: other sources report otherwise
[11] = target: HLA-A*0301 (human); test: competition with 125I-labelled probe peptide for purified HLA, gel filtration; relative binding to standard peptide
[12] = target: HLA-A*0301 (human); test: competition with 125I-labelled probe peptide for purified HLA-A*0301, gel filtration; ratio to standard peptide 941.12
[13] = target: HLA-A*3101 (human); test: competition with 125I-labelled probe peptide for purified HLA-A*3101, gel filtration; ratio to standard peptide 941.12
[14] = target: HLA-A*2401 (human); test: competition with 125I-labelled probe peptide ([..]) for purified HLA, gel filtration; relative to standard peptide 979.02
[15] = target: HLA-DR5w11 (DRB1*1101) (human)
[16] = target: HLA-DR7 (DRB1*0701) (human)
[17] = target: T4, HLA-DR1 (DRB1*0101) (human); test: 125I-probe competition on purified DR1; ratio vs standard 515.01 (IC50 5.0 nM)
T4 chain 1: not shown
T4 chain 2: not shown

[18] = target: T5, HLA-DR4w4 (DRB1*0401) (human); test: 125I-probe competition on purified DR4w4; ratio vs standard 515.01 (IC50 45 nM)
T5 chain 1: not shown
T5 chain 2: not shown

[19] = target: T6, HLA-DRw53 (DRB4*0101) (human); test: 125I-probe competition on purified DRw53; ratio vs standard 717.01 (IC50 58 nM)
T6 chain 1: not shown
T6 chain 2: not shown

[20] = target: HLA-A*3101 (human); test: competitive inhibition of 125I-labelled probe peptide binding to purified HLA; relative to standard peptide
[21] = target: HLA-A*3301 (human); test: as above
[22] = target: HLA-A*6801 (human); test: as above
[23] = target: T1, HLA-DRB1*0101 (human); test: inhibition of 125I-labelled probe peptide binding to purified HLA-DR; gel filtration; conditions: remark: other sources report otherwise
[24] = target: T2, HLA-DRB1*0401 (human); test: as above; conditions: remark: other sources report otherwise
[25] = target: T7, HLA-DRB1*0405 (human); test: as above; conditions: remark: other sources report otherwise
T7 chain 1: not shown
T7 chain 2: not shown

[26] = target: T8, HLA-DRB1*0802 (human); test: as above; conditions: remark: other sources report otherwise
T8 chain 1: not shown
T8 chain 2: not shown

[27] = target: T9, HLA-DRB1*0901 (human); test: as above; conditions: remark: other sources report otherwise
T9 chain 1: not shown
T9 chain 2: not shown

[28] = target: T10, HLA-DRB1*1101 (human); test: as above; conditions: remark: other sources report otherwise
T10 chain 1: not shown
T10 chain 2: not shown

[29] = target: T11, HLA-DRB1*1302 (human); test: as above; conditions: remark: other sources report otherwise
T11 chain 1: not shown
T11 chain 2: not shown

[30] = target: T12, HLA-DRB1*1501 (human); test: as above; conditions: remark: other sources report otherwise
T12 chain 1: not shown
T12 chain 2: not shown

[31] = target: T13, HLA-DRB5*0101 (human); test: as above; conditions: remark: other sources report otherwise
T13 chain 1: not shown
T13 chain 2: not shown

ILRGTSFVY (modifications not checked) [HBV POL 760 …]
binding affinity ratio (IC50 of standard peptide / IC50 of test peptide) [1]: 0.044

DLNLGNLNVSIPWTH (modifications not checked) [… (HBV POL 40, 15-mer)]
binding affinity ratio (IC50 of standard peptide / IC50 of test peptide) [2]: 0.0038
binding affinity ratio (IC50 of standard peptide / IC50 of test peptide) [3]: 0.024
binding affinity ratio (IC50 of standard peptide / IC50 of test peptide) [4]: 0.001

PLDKGIKPY (modifications not checked) [HBV POL 124 …]
binding affinity ratio (IC50 of standard peptide / IC50 of test peptide) [5]: 0.019

IPWTHKVGNF (modifications not checked) [HBV POL 50 …]
binding affinity ratio (IC50 standard peptide / IC50 test peptide) [6]: 0.0013
binding affinity ratio (IC50 standard peptide / IC50 test peptide) [7]: 0.0001
binding affinity ratio (IC50 standard peptide / IC50 test peptide) [8]: 0.0001
binding affinity ratio (IC50 standard peptide / IC50 test peptide) [9]: 0.0002

RLKLIMPAR (modifications not checked) [HBV POL 106 peptide …]
binding affinity ratio (IC50 of standard peptide / IC50 of test peptide) [10]: 0.049
binding affinity ratio (IC50 of standard peptide / IC50 of test peptide) [11]: 0.095
binding affinity ratio (IC50 of standard peptide / IC50 of test peptide) [12]: 0.095
binding affinity ratio (IC50 of standard peptide / IC50 of test peptide) [13]: 3.1

KFAVPNLQSL (modifications not checked) [HBV POL 395 …]
binding affinity ratio (IC50 of the standard peptide / IC50 of the test peptide) [14]: 0.002

WPKFAVPNLQSLTNL (modifications not checked) [HBV POL exemplary 15-mer …]
binding affinity ratio (standard IC50 / test IC50) [15]: 0.0002
binding affinity ratio (standard IC50 / test IC50) [16]: 0.0008
binding affinity ratio (standard IC50 / test IC50) [17]: 0.0007
binding affinity ratio (standard IC50 / test IC50) [18]: 0.0023
binding affinity ratio (standard IC50 / test IC50) [19]: 0.018

PIFFCLWVY (modifications not checked) [HBV ENV 380 …]
binding affinity ratio (IC50 of standard peptide / IC50 of test peptide) [5]: 0.0078

LLAACFAR (modifications not checked) [HBV POL 719 peptide LLAACFAR]
binding affinity ratio (IC50 of standard peptide / IC50 of test peptide) [20]: 0.0015
binding affinity ratio (IC50 of standard peptide / IC50 of test peptide) [21]: 0.0029
binding affinity ratio (IC50 of standard peptide / IC50 of test peptide) [22]: 0.0064

GFFLLTRILTIPQSL (modifications not checked) [… (HBV ENV 181, 15-mer)]
binding affinity ratio (IC50 of standard peptide / IC50 of test peptide) [23]: 0.43
binding affinity ratio (IC50 of standard peptide / IC50 of test peptide) [24]: 3.1
binding affinity ratio (IC50 of standard peptide / IC50 of test peptide) [25]: 0.45
binding affinity ratio (IC50 of standard peptide / IC50 of test peptide) [26]: 1.6
binding affinity ratio (IC50 of standard peptide / IC50 of test peptide) [27]: 0.55
binding affinity ratio (IC50 of standard peptide / IC50 of test peptide) [28]: 2.3
binding affinity ratio (IC50 of standard peptide / IC50 of test peptide) [29]: 0.078
binding affinity ratio (IC50 of standard peptide / IC50 of test peptide) [30]: 0.015
binding affinity ratio (IC50 of standard peptide / IC50 of test peptide) [31]: 0.011

Reference: US20090311283A1
